The source of these data is US20190263922A1 (TIGA TX, published 2019).

For experiment [1], the target named is T1, human CD20 (human, UniProt P11836 1-297).
T1 construct: whole, on cells; Always presented on cells; also called MS4A1; CD20 WT
T1 sequence (looked up): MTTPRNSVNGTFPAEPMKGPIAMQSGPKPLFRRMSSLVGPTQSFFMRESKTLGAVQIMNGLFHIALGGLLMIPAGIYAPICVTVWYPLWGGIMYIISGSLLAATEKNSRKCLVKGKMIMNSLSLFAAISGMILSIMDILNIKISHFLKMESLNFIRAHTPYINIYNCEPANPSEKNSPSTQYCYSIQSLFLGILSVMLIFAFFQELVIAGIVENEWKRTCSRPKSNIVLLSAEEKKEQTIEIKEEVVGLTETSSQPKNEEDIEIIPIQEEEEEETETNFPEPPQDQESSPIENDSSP
The experiment can be described thus: FACS on Daudi cells, dilution series. The method, then: FIG. 8. […] Binding was determined by FACS after incubation of Daudi cells with a dilution series of mAb.
10⁵ Daudi cells were plated out in a 96-well plate and incubated with IgG1-CD20 mAbs (in PBS) for 45 min on ice. After washing, bound CD20 mAbs were detected with goat-F(ab′)₂-anti-hIgG-RPE (Southern Biotech) and subsequently measured on a FACS Canto II (BD).

Experiment [2] addresses T1, human CD20. The experiment can be described thus: binding assay, parental against L11V version, data not shown.
Experiment [3] has as its target T1, human CD20. As to the kind of experiment: FACS on Ramos cells, dilution series.
For experiment [4], the target named is T2, CD20 mutant T159K/N163D/N166D (human, UniProt P11836 1-297).
T2 construct: whole, on cells; also called KDD
T2 sequence (looked up): T1 sequence (looked up) with T159K, N163D, N166D
The experiment can be described thus: FACS, HEK293F cells transfected with CD20 T159K/N163D/N166D, 5 ug/mL mAb.
Method: (§3) One day post-transfection, cells were harvested, washed in FACS buffer and stained for 30 min with 5 μg/mL CD20 mAbs on ice. mAb binding was detected with a goat-anti-hIgG-APC or goat-anti-mIgG-APC Ab (Jackson). Cells were measured on a FACS Canto II (BD).
Therefore, we first performed a rough epitope mapping experiment with two CD20 mutants, with amino acids mutated in either the small (T159K/N163D/N166D) or larger (A170S/P172S) loop of CD20 (FIG. 4B).

For the next experiment, the target named is T3, CD20 single mutant A170P (human, UniProt P11836 1-297).
T3 construct: whole, on cells
T3 sequence (looked up): T1 sequence (looked up) with A170P
As to the kind of experiment: FACS, HEK293F cells transfected with CD20 A170P. In general terms: Flow cytometry measures light scatter and fluorescence of single cells or particles in a stream.

Experiment [5] concerns the target T1, human CD20. As to the kind of experiment: FACS on Daudi cells.
The target of experiment [6] is T1, human CD20. The experiment can be described thus: LigandTracer Green, 10 nM FITC-labeled mAb on SKBR3-CD20 cells, OneToOne fit, non-competitive dissociation. On the procedure:
(§1) Kinetics analysis of interactions between the mAbs and CD20 was performed by using the LigandTracer green Technology (Ridgeview Instruments AB). 10⁶ SKBR3-CD20 cells were seeded on one side of a 10 cm culture dish (Greiner) as target cell area and association of 10 nM FITC-labeled CD20 mAb was measured. For non-competitive or competitive dissociation, labeled mAb solution was replaced by RPMI culture medium or 100 nM unlabeled mAb of the same clone, respectively. Analysis was performed using an OneToOne fitting model in TraceDrawer (Ridgeview Instruments AB).
(§2) A slow Ab off-rate might favor the formation of Ab-Clq complexes, the first component of the classical complement pathway. […] To characterize interaction kinetics and affinity of mAbs, we used the LigandTracer technology to record real-time binding and dissociation of Abs to cellular receptors.

The target of experiment [7] is T1, human CD20. As to the kind of experiment: LigandTracer Green, 10 nM FITC-labeled mAb on SKBR3-CD20 cells, OneToOne fit, competitive dissociation (100 nM unlabeled mAb of the same clone). The method, then:
as §1, §2

Substitutions are numbered along the chain they refer to. Numbers in names are those of the source.

Method for CD20 single mutant A170P: as §3

B1: IgG1-CD20-9 (antibody, V domains shown)
VH: QAYLQQSGAELVRPGASVKMSCKASGYTFPSYNMHWVKQTPRQGLEWIGAIYPGNGDTSYNQKFKGKASQTVDKSSSTVYMQLSSLTSADSAVYFCARSRLFDSSYGWYFDVWGTGTTVTVSS
VL: QIVLSQSPAILSAYPGEKVTMTCRARSSVSYIDWYQQKAGSSPKPWIYATSNLASGVPARFSGSGSGTSYSLTISRVEAEDAATYYCQQWTSNPPTFGGGTKLEIKR
notes: Chimeric: human IgG1 constant region and human kappa light chain; also called chimerized version of m9
In the case of B1, the binding result with human CD20 [1] is recorded as “binds”.

B2: IgG1-CD20-10 (antibody, V domains shown)
VH: QAYLQQSGADLVRPGASVKMSCKASGFTFPSYNLHWVKQTPRQGLEWIGAIYPGNGDTSYNQKFKGKATLTVDKSSSTAYMQLSSLTSEDSAVYFCARSAYYGSNVWFFDVWGTGTTVTVSS
VL: B1 VL with Y14S, R26S, I32M, A39P, A59T, T91I, G99A, E104D, I105L
notes: Chimeric: human IgG1 constant region and human kappa light chain; also called chimerized version of m10
On to B2, for which the binding result with human CD20 [1] is on record as “binds”.

B3: IgG1-CD20-1 with the L11V mutation (antibody)
heavy: not shown
light: QIVLSQSPAVLFASPGEKVTMTCRARSSVSYMDWYQQKPRSSPKPWIYATSNLASGVPARFSGSGSGTSYSLTISRVEAEDAATYYCQQWTSNPPTFGSGTKLEIKRTVAAPSVFIFPPSDEQLKSGTASVVCLLNNFYPREAKVQWKVDNALQSGNSQESVTEQDSKDSTYSLSSTLTLSKADYEKHKVYACEVTHQGLSSPVTKSFNRGEC
notes: Chimeric human IgG1/kappa; leucine to valine at Kabat position 11 of the VH framework; also called IgG1-CD20-1 L11V
In the case of B3, in the experiment with human CD20 [2], the binding result is given as “binds”.

B4: IgA2 variant of m2 (IgA-CD20-2 as IgA2(m1)) (antibody)
heavy: QAYLQQSGAELVRPGASVKMSCKASGYTFTSYNMHWVKQTPRQGLEWIGGIYPGNGDTSYNQKFKGKATLTVDKSSSTAYMQLSSLTSEDSAVYFCARYYYGSSYGAMDYWGQGTSVTVSSASPTSPKVFPLSLDSTPQDGNVVVACLVQGFFPQEPLSVTWSESGQNVTARNFPPSQDASGDLYTTSSQLTLPATQCPDGKSVTCHVKHYTNPSQDVTVPCPVPPPPPCCHPRLSLHRPALEDLLLGSEANLTCTLTGLRDASGATFTWTPSSGKSAVQGPPERDLCGCYSVSSVLPGCAQPWNHGETFTCTAAHPELKTPLTANITKSGNTFRPEVHLLPPPSEELALNELVTLTCLARGFSPKDVLVRWLQGSQELPREKYLTWASRQEPSQGTTTFAVTSILRVAAEDWKKGDTFSCMVGHEALPLAFTQKTIDRLAGKPTHVNVSVVMAEVDGTCY
light: B3 light with V10I, F12S, R26S, D33H, R40G, E80A, Q88H, S92F, S99G
notes: Monomeric human IgA2(m1) constant region (pEE14.4-IgA2(m1)) and human kappa light chain; also called IgA2-CD20 mAb; IgA2-CD20 UMAB002
Turning to B4, the binding result with human CD20 [3] is “binds”.

B5: IgA2 variant of m1 (IgA-CD20-1 as IgA2(m1)) (antibody)
heavy: QAYLQQSGAELVRPGASVKMSCKASGYTFTSYNLHWVKQTPRQGLEWIGAIYPGNGDTSYNQKFKGKATLTVDKSSSTAYMQLSRLTSEDSAVYFCARSNSYGSTYWYFDVWGTGTTVTVSSASPTSPKVFPLSLDSTPQDGNVVVACLVQGFFPQEPLSVTWSESGQNVTARNFPPSQDASGDLYTTSSQLTLPATQCPDGKSVTCHVKHYTNPSQDVTVPCPVPPPPPCCHPRLSLHRPALEDLLLGSEANLTCTLTGLRDASGATFTWTPSSGKSAVQGPPERDLCGCYSVSSVLPGCAQPWNHGETFTCTAAHPELKTPLTANITKSGNTFRPEVHLLPPPSEELALNELVTLTCLARGFSPKDVLVRWLQGSQELPREKYLTWASRQEPSQGTTTFAVTSILRVAAEDWKKGDTFSCMVGHEALPLAFTQKTIDRLAGKPTHVNVSVVMAEVDGTCY
light: B3 light
notes: Monomeric human IgA2(m1) constant region (pEE14.4-IgA2(m1)) and human kappa light chain; also called IgA2-CD20 mAb; IgA2-CD20 UMAB001
With B5, the binding result with human CD20 [3] was “binds”.

B6: IgA1 variant of m2 (IgA-CD20-2 as IgA1) (antibody)
heavy: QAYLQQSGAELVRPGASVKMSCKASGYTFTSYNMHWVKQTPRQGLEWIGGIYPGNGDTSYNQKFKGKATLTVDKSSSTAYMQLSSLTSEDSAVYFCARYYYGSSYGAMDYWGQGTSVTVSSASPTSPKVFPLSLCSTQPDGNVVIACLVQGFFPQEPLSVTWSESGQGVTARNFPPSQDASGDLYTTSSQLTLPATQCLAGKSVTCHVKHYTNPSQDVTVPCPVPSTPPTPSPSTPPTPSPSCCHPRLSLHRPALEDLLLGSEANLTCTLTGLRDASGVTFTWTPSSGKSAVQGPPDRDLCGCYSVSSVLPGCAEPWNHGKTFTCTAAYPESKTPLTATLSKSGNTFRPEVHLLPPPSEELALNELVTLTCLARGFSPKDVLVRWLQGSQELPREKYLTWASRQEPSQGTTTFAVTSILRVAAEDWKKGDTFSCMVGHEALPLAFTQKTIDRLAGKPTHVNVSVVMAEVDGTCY
light: B3 light with V10I, F12S, R26S, D33H, R40G, E80A, Q88H, S92F, S99G
notes: Monomeric human IgA1 constant region (pEE14.4-IgA1) and human kappa light chain; also called IgA1-CD20 mAb; IgA1-CD20 UMAB002
B6: in the experiment with human CD20 [3], the binding result was “binds”.

B7: IgA1 variant of m1 (IgA-CD20-1 as IgA1) (antibody)
heavy: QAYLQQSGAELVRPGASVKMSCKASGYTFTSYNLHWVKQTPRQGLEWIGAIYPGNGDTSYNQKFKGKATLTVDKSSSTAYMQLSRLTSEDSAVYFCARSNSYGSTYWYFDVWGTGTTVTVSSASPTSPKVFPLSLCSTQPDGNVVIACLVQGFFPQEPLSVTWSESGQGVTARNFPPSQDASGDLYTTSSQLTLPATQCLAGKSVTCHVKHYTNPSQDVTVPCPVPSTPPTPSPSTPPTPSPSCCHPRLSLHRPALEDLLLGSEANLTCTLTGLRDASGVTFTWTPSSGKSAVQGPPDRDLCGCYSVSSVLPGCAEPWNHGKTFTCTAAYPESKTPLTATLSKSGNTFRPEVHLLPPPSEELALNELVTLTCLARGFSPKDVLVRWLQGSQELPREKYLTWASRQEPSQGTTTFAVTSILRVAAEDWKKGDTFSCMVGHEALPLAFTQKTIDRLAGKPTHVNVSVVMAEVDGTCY
light: B3 light
notes: Monomeric human IgA1 constant region (pEE14.4-IgA1) and human kappa light chain; also called IgA1-CD20 mAb; IgA1-CD20 UMAB001
On to B7, for which, in the experiment with human CD20 [3], the binding result was “binds”.

B8: IgG1-CD20-2 with the L11V mutation (antibody)
heavy: not shown
light: B3 light with V10I, F12S, R26S, D33H, R40G, E80A, Q88H, S92F, S99G
notes: Chimeric human IgG1/kappa; leucine to valine at Kabat position 11 of the VH framework; also called IgG1-CD20-2 L11V
Consider B8, for which the binding result with human CD20 [2] is on record as “binds”.

B9: IgG1-CD20-7 (antibody, V domains shown)
VH: QAYLQQSGAELVRPGASVKMSCKASGYTFASYNMHWIKQTPRQGLEWIAAIYPGNGDTSYNQKFKGKATLTVDKSSSTAYMQLSSLTSEDSAVYFCARTYYYGSSPYWSFDVWGTGTTVTVSS
VL: DIQMTQSPASLSASVGETVTVTCGASYNIYGALNWYQRKQGKSPQLLIYGATNLADGMSSRFSGSGSGRQYSLKISSLHPDDVATYYCQNVLSNPPTFGGGTKLEIKR
notes: Chimeric: human IgG1 constant region and human kappa light chain; also called chimerized version of m7
For the molecule B9, the binding result with human CD20 [1] is listed as “binds”.

B10: m7 (mIgG2b-CD20 mAb) (antibody, V domains shown)
VH: B9 VH
VL: DIQMTQSPASLSASVGETVTVTCGASYNIYGALNWYQRKQGKSPQLLIYGATNLADGMSSRFSGSGSGRQYSLKISSLHPDDVATYYCQNVLSNPPTFGGGTKLEIK
notes: Mouse IgG2b hybridoma mAb
Take B10: the binding result (in experiment [4]; in the experiment with CD20 single mutant A170P; with human CD20 [5]) was “binds” each time.

B11: m2 (mIgG2c-CD20 mAb) (antibody, V domains shown)
VH: QAYLQQSGAELVRPGASVKMSCKASGYTFTSYNMHWVKQTPRQGLEWIGGIYPGNGDTSYNQKFKGKATLTVDKSSSTAYMQLSSLTSEDSAVYFCARYYYGSSYGAMDYWGQGTSVTVSS
VL: QIVLSQSPAILSASPGEKVTMTCRASSSVSYMHWYQQKPGSSPKPWIYATSNLASGVPARFSGSGSGTSYSLTISRVEAADAATYYCHQWTFNPPTFGGGTKLEIK
modifications: FITC- or Alexa647-labelled in the kinetic assays; label sites not given
notes: Mouse IgG2c hybridoma mAb; FITC- or Alexa647-labeled in the kinetic assays
As a reminder, the Kd is a measure of binding affinity in units of concentration. A high value points to a looser complex. What is called koff is a measure of how fast the partners let go of each other. High values mean a short-lived complex, low ones a long-lived complex. Broadly, the kon is the second-order rate constant of association. Lower therefore signals slow association. For B11, in the experiment with human CD20 [6], the Kd is 0.21 nM, the koff stood at 1.77e-05 s⁻¹ and the kon came to 85400 M⁻¹ s⁻¹. In the experiment with human CD20 [7], this molecule gave a Kd of 0.96 nM, a koff of 7.8e-05 s⁻¹ and a kon of 81700 M⁻¹ s⁻¹.

B12: m9 (mIgG2c-CD20 mAb) (antibody, V domains shown)
VH: B1 VH
VL: B11 VL with S14Y, S26R, M32I, H33D, P39A, A80E, H88Q, F92S
modifications: FITC-labelled antibody in the LigandTracer assay; the label positions are not defined.
notes: Mouse IgG2c hybridoma mAb; FITC-labeled in LigandTracer
Turning to B12, in the experiment with human CD20 [6], binding was characterised by a dissociation constant (Kd) of 0.25 nM, the off-rate constant (koff) stood at 1.13e-05 s⁻¹ and the kon was 45700 M⁻¹ s⁻¹. In the experiment with human CD20 [7], this molecule displayed a Kd of 0.12 nM, a koff of 6.53e-06 s⁻¹ and a kon of 53900 M⁻¹ s⁻¹.

B13: m10 (mIgG2c-CD20 mAb) (antibody, V domains shown)
VH: B2 VH
VL: B11 VL with H33D, A59T, A80E, H88Q, T91I, F92S, G99A, E104D, I105L
modifications: FITC-labelled in the LigandTracer assay; label sites not given
notes: as for B12
In the experiment with human CD20 [6], B13 displayed a Kd of 0.19 nM, a koff of 8.17e-06 s⁻¹ and a kon of 44200 M⁻¹ s⁻¹. In the experiment with human CD20 [7], this molecule displayed a Kd of 0.51 nM, a koff of 2.82e-05 s⁻¹ and a kon of 55700 M⁻¹ s⁻¹.
